The values below come from patent publication US7569341.

The target in assay [1] is dog IgG whole molecules (reagent grade, Sigma) (dog). The assay can be described thus: sandwich ELISA; biotinylated antibody directly on streptavidin well; IgG mixture; detected with aD-AP. Background: ELISA stands for enzyme-linked immunosorbent assay.
For assay [2], the target named is bovine IgG whole molecules (reagent grade, Sigma) (bovine). Briefly: sandwich ELISA; capture CD on C-DNA well; IgG mixture; detected with aB-AP.
Assay [3] deals with mouse IgG whole molecules (Pierce) (mouse). The assay can be described thus: sandwich ELISA; capture AD on A-DNA well; IgG mixture; detected with aM-AP.
Assay [4] deals with bovine IgG whole molecules (reagent grade, Sigma) (bovine). Briefly: sandwich ELISA; biotinylated antibody directly on streptavidin well; IgG mixture; detected with aB-AP.
For assay [5], the target named is mouse IgG whole molecules (Pierce) (mouse). The assay can be described thus: sandwich ELISA; capture BD on B-DNA well; IgG mixture; detected with aM-AP.
For assay [6] the target is unchanged. Briefly: sandwich ELISA; biotinylated antibody directly on streptavidin well; IgG mixture; detected with aM-AP.
The target of assay [7] is bovine IgG whole molecules (reagent grade, Sigma) (bovine). Briefly: sandwich ELISA; capture AD on A-DNA well; IgG mixture; detected with aB-AP.
The target in assay [8] is dog IgG whole molecules (reagent grade, Sigma) (dog). The assay can be described thus: sandwich ELISA; capture CD on C-DNA well; IgG mixture; detected with aD-AP.
In assay [9] the target is bovine IgG whole molecules (reagent grade, Sigma) (bovine). The assay can be described thus: sandwich ELISA; capture BD on B-DNA well; IgG mixture; detected with aB-AP.
Assay [10] has as its target dog IgG whole molecules (reagent grade, Sigma) (dog). Briefly: sandwich ELISA; capture BD on B-DNA well; IgG mixture; detected with aD-AP.
In assay [11] the target is mouse IgG whole molecules (Pierce) (mouse). The assay can be described thus: sandwich ELISA; capture CD on C-DNA well; IgG mixture; detected with aM-AP.
In assay [12] the target is dog IgG whole molecules (reagent grade, Sigma) (dog). The assay can be described thus: sandwich ELISA; capture AD on A-DNA well; IgG mixture; detected with aD-AP.
In assay [13] the target is bovine IgG whole molecules (reagent grade, Sigma) (bovine). The assay can be described thus: sandwich ELISA; capture BB on B-DNA well; IgG mixture; detected with aB-AP.
Assay [14] has the same target. Briefly: sandwich ELISA; capture AB on A-DNA well; IgG mixture; detected with aB-AP.
Assay [15] has the same target. The assay can be described thus: sandwich ELISA; capture CB on C-DNA well; IgG mixture; detected with aB-AP.
Assay [16] deals with mouse IgG whole molecules (Pierce) (mouse). Briefly: sandwich ELISA; capture AB on A-DNA well; IgG mixture; detected with aM-AP.
The target of assay [17] is dog IgG whole molecules (reagent grade, Sigma) (dog). Briefly: sandwich ELISA; capture BB on B-DNA well; IgG mixture; detected with aD-AP.
Assay [18] has the same target. The assay can be described thus: sandwich ELISA; capture CB on C-DNA well; IgG mixture; detected with aD-AP.
The target in assay [19] is mouse IgG whole molecules (Pierce) (mouse). Briefly: sandwich ELISA; capture BB on B-DNA well; IgG mixture; detected with aM-AP.
Assay [20] shares this target. The assay can be described thus: sandwich ELISA; capture CB on C-DNA well; IgG mixture; detected with aM-AP.
The target in assay [21] is dog IgG whole molecules (reagent grade, Sigma) (dog). The assay can be described thus: sandwich ELISA; capture AB on A-DNA well; IgG mixture; detected with aD-AP.
Assay [22] addresses mouse IgG whole molecules (Pierce) (mouse). Briefly: sandwich ELISA; capture AM on A-DNA well; IgG mixture; detected with aM-AP.
The target is the same in assay [23]. Briefly: sandwich ELISA; capture BM on B-DNA well; IgG mixture; detected with aM-AP.
The target in assay [24] is dog IgG whole molecules (reagent grade, Sigma) (dog). Briefly: sandwich ELISA; capture BM on B-DNA well; IgG mixture; detected with aD-AP.
Assay [25] has as its target bovine IgG whole molecules (reagent grade, Sigma) (bovine). The assay can be described thus: sandwich ELISA; capture CM on C-DNA well; IgG mixture; detected with aB-AP.
Assay [26] deals with mouse IgG whole molecules (Pierce) (mouse). The assay can be described thus: sandwich ELISA; capture CM on C-DNA well; IgG mixture; detected with aM-AP.
Assay [27] has as its target bovine IgG whole molecules (reagent grade, Sigma) (bovine). Briefly: sandwich ELISA; capture BM on B-DNA well; IgG mixture; detected with aB-AP.
Assay [28] has as its target dog IgG whole molecules (reagent grade, Sigma) (dog). The assay can be described thus: sandwich ELISA; capture CM on C-DNA well; IgG mixture; detected with aD-AP.
Assay [29] has as its target bovine IgG whole molecules (reagent grade, Sigma) (bovine). The assay can be described thus: sandwich ELISA; capture AM on A-DNA well; IgG mixture; detected with aB-AP.
For assay [30], the target named is mouse IgG whole molecules (Pierce) (mouse). The assay can be described thus: ELISA on mouse IgG-coated plate, A405, against controls A and B.
Assay [31] has as its target dog IgG whole molecules (reagent grade, Sigma) (dog). The assay can be described thus: sandwich ELISA; capture AM on A-DNA well; IgG mixture; detected with aD-AP.

Several values for one entry are separate records, joined by “and”; a condition that tells them apart may be missing. Identical values can stand only once.

Consider “biotinylated rabbit anti-dog IgG (#B-7640), polyclonal rabbit IgG (antibody)”, for which the absorbance reading (405 nm) is 334 and 413 and 941 in assay [1]; 23 in assay [2]; 73 in assay [3]; 28 and 26 and 75 in assay [4]; 31 in assay [5]; 20 and 24 and 35 in assay [6]. Also, the absorbance reading (405 nm) in assay [7] came out at 84; in assay [8], 102; in assay [9], 57; in assay [10], 481; in [11] it was 26; in assay [12], 673.

Consider “biotinylated rabbit anti-bovine IgG (#B-7140), polyclonal rabbit IgG (antibody)”, for which the absorbance reading (405 nm) in [13] was 591; in assay [4], 279 and 319 and 265; in [14], 729; in [15], 90; in assay [6], 50 and 64 and 61; in assay [16] it was 146. For the same substance, the absorbance reading (405 nm) was determined as 9 in assay [17]; 9 in assay [18]; 153 in [19]; 24 in [20]; 20 in assay [21].

Regarding “biotinylated rabbit anti-mouse IgG (#B-8520), polyclonal rabbit IgG (antibody)”, the absorbance reading (405 nm) in assay [4] is 15 and 31 and 19; in assay [6] it was 177 and 189 and 186; in assay [22] it was 533; in assay [23] it was 346; in assay [24], 4; in [25], 8. In addition, the absorbance reading (405 nm) in assay [26] was 49; in assay [27], 30; in assay [28] it was 5; in [29], 45; in assay [31] it was 8. The signal-to-noise ratio in assay [30] was 60.
